Data reported in the supplement of paper PMC7125110.
± gives the standard error. For some of these results: Fewer inactive variants are shown than the library holds.

B1: glmS ribozyme (parent)
chain: AUAAAAGCGCCAGAACUACAGAAAUGUAGUUGACGAGGAGGAGGUUUAUCGAAUUUUCGGCGGAUGCCUCCAAA

Tests used:
Conditions in all cases: with glucosamine-6-phosphate
[1] = variants of: B1; assay: kcat; higher = faster cleavage; RNA array
Summary of the method: (§1)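 In situ transcription by E. coli RNA polymerase produced barcoded ribozyme variants on sequenced MiSeq chips, and a hybridised Cy3 probe tracked them at 37 °C. Glucosamine-6-phosphate was flowed in at 40 μM to 10 mM in HEPES/KCl/Mg(OAc)2 buffer. kcat and KM were taken from weighted Michaelis–Menten fits of kobs values from exponential decay fits.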

[2] = variants of: B1; assay: KM; higher = weaker cofactor use; RNA array
Summary of the method: as §1

[3] = variants of: B1; assay: self-cleavage kobs at 40 uM GlcN6P; higher = faster cleavage; RNA array
Summary of the method: as §1

[4] = variants of: B1; assay: self-cleavage kobs at 160 uM GlcN6P; higher = faster cleavage; RNA array
Summary of the method: as §1

[5] = variants of: B1; assay: self-cleavage kobs at 640 uM GlcN6P; higher = faster cleavage; RNA array
Summary of the method: as §1

[6] = variants of: B1; assay: self-cleavage kobs at 2500 uM GlcN6P; higher = faster cleavage; RNA array
Summary of the method: as §1

[7] = variants of: B1; assay: self-cleavage kobs at 10000 uM GlcN6P; higher = faster cleavage; RNA array
Summary of the method: as §1

Variant | kcat [1] [s⁻¹] | KM [2] [µM] | self-cleavage kobs at 40 uM GlcN6P [3] [s⁻¹] | self-cleavage kobs at 160 uM GlcN6P [4] [s⁻¹] | self-cleavage kobs at 640 uM GlcN6P [5] [s⁻¹] | self-cleavage kobs at 2500 uM GlcN6P [6] [s⁻¹] | self-cleavage kobs at 10000 uM GlcN6P [7] [s⁻¹]
A12C U31G | 0.00416 ± 0.00048 | 2340 ± 410 | 8.48e-05 ± 1.8e-05 | 0.000245 ± 7.1e-05 | 0.00081 ± 0.00015 | 0.00237 ± 0.00075 | 0.00339 ± 0.00051
U47C U65A | 0.00113 ± 0.00024 | 930 ± 300 | 6.54e-05 ± 1.7e-05 | 0.000154 ± 2.2e-05 | 0.000443 ± 9.4e-05 | 0.00121 ± 0.00023 | 0.00092 ± 0.00017
A64G G66A | 0.0158 ± 0.0059 | 936 ± 460 | 0.000837 ± 9.3e-05 | 0.00197 ± 0.00028 | 0.00554 ± 0.0008 | 0.0124 ± 0.0025 | 0.0215 ± 0.0052
A64G G66C | 0.00291 ± 0.001 |  | 4.68e-05 ± 1.7e-05 |  | 0.00057 ± 0.00011 | 0.00103 ± 0.00022 | 0.0027 ± 0.00051
U49A C68G | 2.5e-05 ± 5.3e-06 |  |  |  |  |  | 
G38U A39G C50G | 3.57e-05 ± 8.1e-06 |  |  |  |  |  | 
G40C U69C | 7.37e-05 ± 2.1e-05 |  |  |  |  | 5.5e-05 ± 1.1e-05 | 5.63e-05 ± 1.4e-05
G29A G38C | < 1e-05 |  |  |  |  |  | < 1e-05
C10A C58G | 1.34e-05 ± 2.4e-06 |  |  |  |  |  | 
A39C G59A | < 1e-05 |  | < 1e-05 | < 1e-05 | < 1e-05 |  | 
G13C U56G | 0.000107 ± 9.4e-06 | 2860 ± 820 |  |  |  | 5.37e-05 ± 1.7e-05 | 8.26e-05 ± 1.2e-05
A14G G32C A53U | 0.000218 ± 7.2e-05 |  |  |  | 4.08e-05 ± 2e-05 | 6.01e-05 ± 1.8e-05 | 0.000144 ± 2.8e-05
G29C U54C | 0.00154 ± 0.00063 |  | 6.42e-05 ± 1.4e-05 | 0.000153 ± 2.5e-05 | 0.000301 ± 7.9e-05 | 0.000773 ± 0.00014 | 0.0019 ± 0.00032
G35C U65G | < 1e-05 | 1500 ± 360 | < 1e-05 | < 1e-05 |  | < 1e-05 | 
U30A G40U | 0.000556 ± 6.4e-05 | 2160 ± 580 |  |  | 0.000117 ± 3e-05 | 0.000367 ± 9e-05 | 0.000446 ± 6.3e-05
C16A C68A | 1.91e-05 ± 5.8e-06 |  |  |  |  |  | 

Variant | kcat [1] [s⁻¹] | KM [2] [µM] | self-cleavage kobs at 40 uM GlcN6P [3] [s⁻¹] | self-cleavage kobs at 160 uM GlcN6P [4] [s⁻¹] | self-cleavage kobs at 640 uM GlcN6P [5] [s⁻¹] | self-cleavage kobs at 2500 uM GlcN6P [6] [s⁻¹] | self-cleavage kobs at 10000 uM GlcN6P [7] [s⁻¹]
A14C U46G | 0.000823 ± 0.00019 | 1630 ± 660 | 4.79e-05 ± 1.2e-05 | 8.78e-05 ± 1.5e-05 | 0.000209 ± 2.4e-05 | 0.000478 ± 4.8e-05 | 0.000795 ± 0.0001
U45A U49G | 0.00163 ± 0.00032 | 1560 ± 570 | 5.25e-05 ± 1e-05 | 0.000194 ± 4.9e-05 | 0.000385 ± 5.1e-05 | 0.0012 ± 0.00012 | 0.00132 ± 0.00015
C34U G43A | < 1e-05 |  | < 1e-05 | < 1e-05 |  |  | 
A52G A64G | 0.00183 ± 0.00049 | 3690 ± 1500 | 2.83e-05 ± 7.3e-06 | 6.03e-05 ± 9.6e-06 | 0.00036 ± 3.9e-05 | 0.000616 ± 0.0001 | 0.00136 ± 0.00013
A12G C58A | 0.000476 ± 0.0001 | 1510 ± 610 |  | 4.69e-05 ± 1.3e-05 | 0.000154 ± 1.7e-05 | 0.000245 ± 3.3e-05 | 0.000523 ± 7.4e-05
C16U C67A | 0.00194 ± 0.0004 | 360 ± 110 | 0.000212 ± 2.2e-05 | 0.0005 ± 6.7e-05 | 0.00138 ± 0.00017 | 0.00166 ± 0.0003 | 
A12U G37A | 0.0147 ± 0.0035 | 4700 ± 1500 | 0.000169 ± 2.3e-05 | 0.000398 ± 7.4e-05 | 0.00168 ± 0.00025 | 0.00456 ± 0.001 | 0.0103 ± 0.0011
A39U A52G | 0.00113 ± 0.00012 | 4750 ± 800 |  | 5.2e-05 ± 1.4e-05 | 0.000134 ± 1.3e-05 | 0.000345 ± 5.5e-05 | 0.00078 ± 5.8e-05
U56G G66U | 0.000858 ± 0.00012 | 1780 ± 400 | 3.12e-05 ± 8.7e-06 | 6.25e-05 ± 7.4e-06 | 0.000237 ± 2.4e-05 | 0.000576 ± 5.7e-05 | 0.000682 ± 6.4e-05
A39C U47G | 0.00107 ± 0.00043 |  |  |  | 0.000286 ± 5.5e-05 | 0.000425 ± 0.0001 | 0.00109 ± 0.0002
A12U G59A | 0.000207 ± 1.4e-05 | 3140 ± 430 |  |  | 3.84e-05 ± 8.7e-06 | 8.97e-05 ± 8.8e-06 | 0.000159 ± 1.8e-05
G60C C70G | 2.59e-05 ± 9.4e-06 |  | < 1e-05 |  |  |  | < 1e-05
G62U C67U | < 1e-05 |  |  |  |  |  | < 1e-05
G41A U45G | 0.000391 ± 0.00013 |  | 2.84e-05 ± 1.3e-05 | 3e-05 ± 1.3e-05 | 0.000144 ± 2.4e-05 | 0.000565 ± 0.0001 | 0.000304 ± 5.2e-05
G41U C70U | 0.0009 ± 0.00017 |  | 0.000457 ± 3.9e-05 | 0.000709 ± 0.0001 | 0.000714 ± 0.00011 | 0.00131 ± 0.00021 | 
A14G A42C | 3.47e-05 ± 2.4e-06 | 1730 ± 410 |  |  |  | 1.97e-05 ± 9.6e-06 | 2.99e-05 ± 1e-05
